Earlier results on one substance are cited in PMC6176727.

The target in data set [1] is CLV1 ectodomain (Arabidopsis thaliana) (UniProt Q9SYQ8).
Data set [2] concerns the target CLV1 (Arabidopsis thaliana) (UniProt Q9SYQ8).

“CLV3p (13-amino-acid) (from UniProt Q9XF04)”: the Kd in data set [1] was 1 nM; in data set [2] it was 280 nM.

The term Kd denotes the free concentration of one partner at which half of the binding sites on the other are occupied at equilibrium, for simple one-to-one binding.
